B1: Receptor-interacting serine/threonine-protein kinase 2, residues 438 to 518; numbered along this chain, O43353 (parent)
chain: QWIQSKREDIVNQMTEACLNQSLDALLSRDLIMKEDYELVSTKPTRTSKVRQLLDTTDIQGEEFAKVIVQKLKDNKQMGLQ

Variants of: B1
Assay: abundance fitness (aPCA) (normalised: wild type 0, dead -1); higher = more abundant; growth selection in yeast, the domain comes from the species named
Conditions: Homo sapiens

Abundance fitness, by site and new letter:
F64: Y -0.448; P -0.248; C 0.112; A 0.131; D -0.17; Q -0.156; I -0.269; G -0.257; M -0.047; S -0.212; E -0.123; W -0.384; R -0.475; V -0.236; K -0.566; L -0.295; T -0.142
T56: Y 0.046; W 0.125; V 0.108; G -0.458; Q -0.024; A -0.161; D -0.849; L 0.175; C -0.105; E -0.332; H -0.206; S -0.273; P -0.612; N -0.572; F 0.037; I 0.19; R -0.533
A65: S -0.457; Q -0.743; F -1.12; D -0.569; L -0.949; K -0.708; H -0.44; R -0.649; E -0.456; N -0.389; G -0.6; V -0.933; T -0.85; C -0.624; Y -0.691; P -0.554
Q70: W -0.645; G -0.144; A -0.072; Y -0.776; H -0.351; N -0.81; M -0.436; S -0.174; I -0.614; V -0.714; L -0.687; P -0.567; D -0.206; E 0.08
K66: F -1.05; H -0.459; N -0.58; I -0.757; P -0.471; A -0.172; Q -0.135; Y -0.874; L -0.555; T -0.187; D -0.401; V -0.702; G -0.182; M -0.192; E 0.096; R -0.166
D55: L -0.132; I -0.168; P -0.676; Y -0.445; Q -0.277; T -0.313; V -0.27; M -0.03; C -0.122; E -0.015; K -0.469; N -0.347; H -0.665; W -0.475; G -0.51; S -0.153; R -0.162
E62: A -0.555; T -0.629; D -0.648; L -0.808; H -0.678; P -0.493; K -0.798; G -0.537; I -0.912; S -0.627; Y -0.913; M -0.545; Q -0.943; F -0.741; W -1.32; V -0.853
D74: M -0.399; G -0.336; K -0.644; N -0.345; I -0.261; C -0.246; A -0.076; H 0.046; Q -0.248; F -0.486; E -0.085; P -0.512; Y -0.173; W -0.488; T -0.285; S -0.323; R -0.49
D58: F 0.001; N -0.141; W -0.081; L -0.047; C 0.035; A 0.021; Y -0.259; I -0.007; V 0.041; E 0.107; M -0.033; H 0.026; Q 0.041; P 0.172; R -0.154; T -0.015
L72: V -0.394; T -0.448; G -0.528; Y -0.695; C -0.713; Q -0.451; F -0.072; P -0.54; N -0.043; E -0.283; R -0.633; M 0.121; H -0.741; A -0.865; S -0.587
T57: W -0.738; L -0.002; M 0.108; N -0.684; V 0.046; F -0.392; D -0.28; Y -0.658; E -0.082; P -0.04; S 0.128; G -0.004; A 0.045; Q 0.01; C 0.125; H -0.268; I 0.044
N75: A -0.281; F -0.431; C -0.2; D -0.053
E63: G -0.475; L -0.684; T -0.362; Q -0.485; I -0.538; F -0.972; H -0.734; C -0.527; P -0.432; R -0.413; N -0.646; V -0.592; Y -0.839; D -0.3; K -0.441
G61: A -0.378; D -0.022; R -0.155; T -0.085; N -0.055; I -0.935; Y -0.279; E -0.125; C -0.083; K 0.024; Q -0.243; F -0.604; L -0.531; V -0.253; M -0.947; P -0.596
L54: G -0.519; R -0.475; Y -0.814; M -0.622; F -0.936; K -0.408; H -0.542; Q -0.646; W -1.08; P -0.553; V -0.777; T -0.925; S -0.649
I59: L 0.231; S -0.29; G 0.143; Y -0.342; C -0.029; K 0.17; V -0.171
V67: P -0.562; A -0.674; G -0.639; D -0.453; I 0.164; W -0.95; C -0.33; R -0.854; F -0.945; E -0.294; N -0.651; H -0.396; T -0.305; Q -0.568; L -0.51; M -0.674
V69: N -0.94; Y -0.23; M 0.003; G -0.553; L -0.286; F -0.057; E -0.178; W -0.4; K -0.35; D -0.27; I -0.051; A -0.384; H -0.508; Q -0.306; S -0.57; C -0.159
Q60: L -0.321; C -0.054; W -0.745; I -0.302; H -0.199; P -0.283; R -0.057; A -0.08; V -0.267; E -0.021; F -0.378; K -0.361; G -0.014; T -0.412; N -0.353; Y -0.008; M -0.188
K71: I -0.122; F -0.249; P -0.555; V 0.151; D -0.381; H 0.078; S 0.028; N -0.157; W -1.09; M -0.113; Y -0.204; E -0.21; A 0.022; L -0.289; C -0.02; G -0.281; R -0.612; Q -0.086
K73: G -0.132; A -0.119; F -0.609; M -0.107; T -0.01; D -0.269; E 0.072; S 0.001; Y -0.039; P -0.633; Q -0.003; N -0.191; L -0.064; H -0.319; R 0.011; V -0.191
I68: V -0.147; K -0.909; A -0.367; L -0.413; Q -0.554; W -0.958; R -0.695; S -0.491; G -0.497; Y -0.568; T -0.345; C -0.866; P -0.462; F -0.924; M -0.201; H -0.508; E -0.152; N -0.459
